These results are taken from patent US20220220185A1 (CELL NETWORKS, published 2022).

The target in experiment [1] is T1, Sm-Gβ1 with untagged Gγ2 (human, UniProt P62873 2-340; P59768 2-68).
T1 construct: whole, on cells; also called Sm-Gβγ; SmBiT-fused Gβ1 subunit and native Gγ2 subunit
In words: NanoBiT split-luciferase complementation in HEK293 cells (NanoBiT-G13: Gα13-Lg, Sm-Gβ1, Gγ2; pairing from paragraph 252). On the procedure:
(§1) To complement the inventive chimeric G-protein-based TGFα shedding assay, the inventors made an additional inventive assay in which dissociation of the Gα subunit from the Gβγ subunits, a critical process of G-protein activation, is measured via a luciferase complementation system. Bioluminescence Resonance Energy Transfer (BRET) between a Renilla luciferase-inserted Gα subunit and a GFP10-fused Gβ or Gγ subunit was previously developed to measure Gα-Gβγ dissociation (Gales et al., 2005). Here, they replaced the BRET pair with a split luciferase (NanoLuc Binary Technology; NanoBiT) (Dixon et al., 2016). […] They generated a series of Gα-Lg, Sm-Gβ and Sm-Gγ subunits and optimized a combination.
(§2) Plasmid transfection was performed in a 6-well plate with a mixture of 100 ng Gα-Lg-encoding plasmid, 500 ng Sm-Gβ-encoding plasmid, 500 ng untagged Gγ₂-encoding plasmid, 200 ng GPCR-encoding plasmid with or without 100 ng RIC8-encoding plasmid (per well, hereafter).

In experiment [2] the target is T1, Sm-Gβ1 with untagged Gγ2. In words: NanoBiT split-luciferase complementation in HEK293 cells (NanoBiT-Gs: Gαs-Lg, Sm-Gβ1, Gγ2; pairing from paragraph 252). The method, then: as §1, §2
The target of experiment [3] is T1, Sm-Gβ1 with untagged Gγ2. In words: NanoBiT split-luciferase complementation in HEK293 cells (NanoBiT-Gq: Gαq-Lg, Sm-Gβ1, Gγ2; pairing from paragraph 252). On the procedure:
as §1, §2

Experiment [4] has as its target T1, Sm-Gβ1 with untagged Gγ2. In words: NanoBiT split-luciferase complementation in HEK293 cells (NanoBiT-G12: Gα12-Lg, Sm-Gβ1, Gγ2; pairing from paragraph 252). The method, then:
as §1, §2

T1 sequence (P62873 other isoform, or with tags, fused parts or gaps, chain 1 of 2): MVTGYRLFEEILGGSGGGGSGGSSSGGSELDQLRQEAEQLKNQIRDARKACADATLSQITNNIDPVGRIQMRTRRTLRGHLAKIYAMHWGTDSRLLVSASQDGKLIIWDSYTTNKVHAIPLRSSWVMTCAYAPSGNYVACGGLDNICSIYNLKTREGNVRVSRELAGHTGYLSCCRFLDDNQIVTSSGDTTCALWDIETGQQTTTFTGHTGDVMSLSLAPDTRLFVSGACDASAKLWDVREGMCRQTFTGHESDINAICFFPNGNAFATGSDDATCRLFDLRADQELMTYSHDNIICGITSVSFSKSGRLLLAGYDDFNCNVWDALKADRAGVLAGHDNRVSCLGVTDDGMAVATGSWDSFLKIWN
T1 sequence (P59768 2-68, chain 2 of 2): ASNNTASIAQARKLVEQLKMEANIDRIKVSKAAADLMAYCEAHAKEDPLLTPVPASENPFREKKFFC

B1: Gα13-Lg (other, human, UniProt Q14344 1-377, looked up)
chain: MADFLPSRSVLSVCFPGCLLTSGEAEQQRKSKEIDKCLSREKTYVKRLVKILLLGAGESGKSTFLKQMRIIHGQDFDQRAREEFRPTIYSNVIKGMRVLVDAREKLHIPWGDNSNQQHGDKMMSFDTRAPMAAQGMVETRVFLQYLPAIRALWADSGIQNAYDRRREFQLGESVKYFLDNLDKLGEPDYIPSQQDILLARRPTKGIHEYDFEIKNVPFKMVDVGGQRSERKRWFECFDSVTSILFLVSSSEFDQVLMEDRLTNRLTESLNIFETIVNNRVFSNVSIILFLNKTDLLEEKVQIVSIKDYFLEFEGDPHCLRDVQKFLVECFRNKRRDQQQKPLYHHFTTAINTENIRLVFRDVKDTILHDNLKQLMLQ
notes: whole, on cells; the LgBiT insert is not placed; also called NanoBiT-G13 (Gα subunit); G13
For B1, in the experiment with Sm-Gβ1 with untagged Gγ2 [1], the binding result is reported as “binds”.

B2: Gαs-Lg (other, human, UniProt P63092 2-394, looked up)
chain: GCLGNSKTEDQRNEEKAQREANKKIEKQLQKDKQVYRATHRLLLLGAGESGKSTIVKQMRILHVNGFNGEGGEEDPQAARSNSDGEKATKVQDIKNNLKEAIETIVAAMSNLVPPVELANPENQFRVDYILSVMNVPDFDFPPEFYEHAKALWEDEGVRACYERSNEYQLIDCAQYFLDKIDVIKQADYVPSDQDLLRCRVLTSGIFETKFQVDKVNFHMFDVGGQRDERRKWIQCFNDVTAIIFVVASSSYNMVIREDNQTNRLQEALNLFKSIWNNRWLRTISVILFLNKQDLLAEKVLAGKSKIEDYFPEFARYTTPEDATPEPGEDPRVTRAKYFIRDEFLRISTASGDGRHYCYPHFTCAVDTENIRRVFNDCRDIIQRMHLRQYELL
notes: whole, on cells; the LgBiT insert is not placed; also called NanoBiT-Gs (Gα subunit); Gs
B2: the binding result with Sm-Gβ1 with untagged Gγ2 [2] was “binds”.

B3: Gαq-Lg (other, human, UniProt P50148 1-359, looked up)
chain: MTLESIMACCLSEEAKEARRINDEIERQLRRDKRDARRELKLLLLGTGESGKSTFIKQMRIIHGSGYSDEDKRGFTKLVYQNIFTAMQAMIRAMDTLKIPYKYEHNKAHAQLVREVDVEKVSAFENPYVDAIKSLWNDPGIQECYDRRREYQLSDSTKYYLNDLDRVADPAYLPTQQDVLRVRVPTTGIIEYPFDLQSVIFRMVDVGGQRSERRKWIHCFENVTSIMFLVALSEYDQVLVESDNENRMEESKALFRTIITYPWFQNSSVILFLNKKDLLEEKIMYSHLVDYFPEYDGPQRDAQAAREFILKMFVDLNPDSDKIIYSHFTCATDTENIRFVFAAVKDTILQLNLKEYNLV
notes: whole, on cells; the LgBiT insert is not placed; also called NanoBiT-Gq (Gα subunit); Gq
Take B3: the binding result in the experiment with Sm-Gβ1 with untagged Gγ2 [3] is given as “binds”.

B4: Gα12-Lg (other, human, UniProt Q03113 1-381, looked up)
chain: MSGVVRTLSRCLLPAEAGGARERRAGSGARDAEREARRRSRDIDALLARERRAVRRLVKILLLGAGESGKSTFLKQMRIIHGREFDQKALLEFRDTIFDNILKGSRVLVDARDKLGIPWQYSENEKHGMFLMAFENKAGLPVEPATFQLYVPALSALWRDSGIREAFSRRSEFQLGESVKYFLDNLDRIGQLNYFPSKQDILLARKATKGIVEHDFVIKKIPFKMVDVGGQRSQRQKWFQCFDGITSILFMVSSSEYDQVLMEDRRTNRLVESMNIFETIVNNKLFFNVSIILFLNKMDLLVEKVKTVSIKKHFPDFRGDPHRLEDVQRYLVQCFDRKRRNRSKPLFHHFTTAIDTENVRFVFHAVKDTILQENLKDIMLQ
notes: whole, on cells; the LgBiT insert is not placed; also called NanoBiT-G12 (Gα subunit); G12
In the case of B4, the binding result with Sm-Gβ1 with untagged Gγ2 [4] is on record as “binds”.
